Source: paper PMC7196805

Target: T1, JUNO (mouse (endogenous in mouse oocytes)) (UniProt Q9EQF4)
T1 sequence: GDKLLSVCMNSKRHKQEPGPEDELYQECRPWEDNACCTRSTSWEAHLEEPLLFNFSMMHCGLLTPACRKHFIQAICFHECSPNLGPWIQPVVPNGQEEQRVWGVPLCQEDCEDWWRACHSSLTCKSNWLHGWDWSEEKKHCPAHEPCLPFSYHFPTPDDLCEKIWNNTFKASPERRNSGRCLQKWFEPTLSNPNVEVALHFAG

cell-oocyte binding assay: IZUMO1-expressing cultured cells bound per ZP-free oocyte (FIMP-expressing cells could not bind) (cells per oocyte): 4
cell-oocyte binding assay: transfected HEK293T cells coexpressing IZUMO1 and FIMP, bound per oocyte (coexpression of FIMP did not enhance the binding) (cells per oocyte): 4.1
cell-oocyte binding assay: transfected HEK293T cells expressing IZUMO1 alone, bound per oocyte (cells per oocyte): 4.5
B1: IZUMO1 (natural protein)
chain: CIKCDQFVTDALKTFENTYLNDHLPHDIHKNVMRMVNHEVSSFGVVTSAEDSYLGAVDENTLEQATWSFLKDLKRITDSDLKGELFIKELLWMLRHQKDIFNNLARQFQKEVLCPNKCGVMSQTLIWCLKCEKQLHICRKSLDCGERHIEVHRSEDLVLDCLLSWHRASKGLTDYSFYRVWENSSETLIAKGKEPYLTKSMVGPEDAGNYRCVLDTINQGHATVIRYDVTVLPPKHSEENQPPNIITQEEHETPVHVTPQTPPGQEPESELYPELHPELYPELIPTVAQNPEKKMKTRLLILLTLGFVVLVASIIISVLHFRKVSAKLKNASDEVKPTASGSKSDQSLSQQMGLKKASQADFNSDYSGDKSEATEN
